From the DeepSol protein solubility set

Test: soluble on expression in E. coli; label from the status in PepcDB or PDB records

Sequence	soluble on expression in E. coli
MGSDKIHHHHHHMKPALKSTPALRITLVCNTAWAIYTYRQGLIRMLVGRGVDVTVLAPRDRTFELLVAMGCRCIELPVASKGTSPRDDLRTLYALYRQYRSIRPHVVFHYTIKPNIYGSIAARLAGVQSVAVTTGLGYVFIQQSRAAQVAKKLYRFAFRFPREIWFLNRDDQAAFVEQNLLVHPERARLLHGEGVDLEQFAFTPLPERADYRFVLIGRLLWDKGVGEYVEAARRLRERYPHARFQLLGPVGVDNPSAITREEVAAWEREGIIEYLGEAHDVRPFIAEADCVVLPSYREGVPRTLMEASAMGRPIVTTDVPGCREVVADGVNGLLCEARNAASLAATLARMLDMSGAERRALAERGRKKVAEEFDERVVVEMYKDLVQKMTGVLL	not soluble
MGSDKIHHHHHHMKPSIYSLTRNDLIAWTIEHGEKKFRATQIWDWLYRKRVQSFEEMTNLSKDFIALLNENFLVNPLKQRIVQESADGTVKYLFELPDGMLIETVLMRQHYGLSVCVTTQVGCNIGCTFCASGLIKKQRDLNNGEITAQIMLVQKYFDERGQGERISHVVVMGIGEPFDNYDNVLKFLRTINDDNGLAIGARHITVSTSGLAHKIRDFANEGVQVNLAVSLHAPNNELRSSIMRINRSFPLEKLFAAIEYYIETTNRRVTFEYIMLNGVNDSPENAQELADLTKKIRKLSYVNLIPYNPVTEHDQYSRSPKERVDAFYDVLKKNGVNCVVRQEHGTDIDAACGQLRSNTMKRDREKATAGTAQ	not soluble
MGSDKIHHHHHHMKQKTIHIENLSIGYLGKTDVKVVADRINAGINCGELTCLLGANGVGKSTLLRTLSAFQPKLGGKIEIVGKEIDAYTDKELSTVISVVLTEKCDIRNMTVHELVGLGRSPYTDFWGTLRGEDKEVVERSIALVKIQNLAHRMVHTLSDGERQKVMIAKALAQETPVIFLDEPTAFLDFPSKVEMMQLLHRLSRQTNKTIFLSTHDLELALQIADKIWLMDKMNGVTIGTPEDLSLSGKLSSFFARKGIVFDLETGLFRVDNEYTSQIRLVGHGQKYAMVRKALQRNGILANRTVESDTYIETGDLKDGNGFILHPQEGEAVTLNSIEELLERLQAGSAERAV	not soluble
MGSDKIHHHHHHMKQLPLDIIPPPPTLSNFVTGRNAELLQTLDNLLMMRKHERFVYIWGGTGCGKSHLLQGVASACKRNDMNTLYFACGERTSFANGSEADCVMVDDVDRLGADAQIGLFHLYNRIRDEGQAFLLVSGSVAPTQLKLRADLLTRLAWGLVYEVHELTDEEKMEAMKSHASSRGLALPQEVCDYLLRHERRDLTSLMAKLNALDKYSLASHRKITVPLVRELLQAAS	not soluble
MGSDKIHHHHHHMKQMNVVLIGGGTGLSVLARGLREFPIDITAIVTVADNGGSTGKIRDVMDIPAPGDIRNVIAALSDSESILTQLFQYRFGENQVDGHSLGNLVIAGMTNITNDFGHAIKELSKVLNIKGQVIPSTNASVQLNAVMEDGEIVHGETNIPKTHKKIDRVFLEPSDVEPMNEAIEALEQADLIVLGPGSLYTSVISNLCVKGISEALLRTSAPKLYVSNVMTQPGETDNYDVKEHIDALTRQVGEPFIDFVICSSESYSKDVLQRYEEKNSKPVAVHKEQLKDSGIRVLTASNLVEISNEHYVRHNTKVLSKMIYELALELTSTIRFTPSDKKK	not soluble
MGSDKIHHHHHHMKRQAKIEIQNALVDLMAEYPFQEISTKMICAYCNINRSTFYDYYKDKFDLLDTINSKHKEKFQFLLSALHHNFENIKQDKLKLYKFFIIIAKYIKHNEQFFKDILVTYPMKTLFIDYINLARDYYQQIMNDYSTTVTNKQLYVTYIIGGQAGVFINWLSNGCNESPEEVADILLANTIKLQIQ	not soluble
MGSDKIHHHHHHMKRVQNLLVAVGLSPNYHRRTYPSGKKSLVVRFYATLTPGLEDVAAKEVESFGCKVEEIRERRGRIFFSGEKSAIPLLNHFSRTLERLNVLLLRCEVEGLDDIYAAVKGLDFSFVKGKSFAIRSLRVGEHDFTSMDIARVAGQAVIDSFMESYGERLKVNLNQPDVIIRVELVDSELFVGVDTTGDDAMHKRWWRVYNHPAHLNAAIACGMLRIADWKVDESLIDPMCGSGTIPIEAALMVRNVPNLRDFAYKKLCEWELAFEPNEVRLKLYGMEKFRKHLVGAIRNAVNAGVADTIEFRQGDATEMTGEYDVIITNPPYGLRIHRKGAIERLYHSFARAAKRCMNQNSRLVIITAEHRVFANAAEEAGLQCTHERFVKYGGLLTKIMVFMI	not soluble
MGSDKIHHHHHHMKSDLELKHDVDQELLWDPALDARNVTATVLNRIVTLEGSVNSCAQKLALQKAVQRVAGSRAVVLDLVVRAPSPLRHTDEDLAAAIVSALQWQEGLPEDAIRVVVEHGCVTLTGEVDYGFQRQMAEVLVSRMRGVVGVANQIEVRIDPVAADVSKHIAEALQRRSRRESGGISVDVHDGVVRLTGVADSLLESVWPAASPGAPRACGGWSTSWSSHESRRLALHAFPSCLNQL	not soluble
MGSDKIHHHHHHMKSEDNGESWSDTYFLTHGEKWHSSACNVLFSNGNVYLAMEQRCRLNEVTGWDVAGLSPTLFRACVEDNLCLASSWSRSEKFIYKEVFDGAKLDFFGIPFYDCETNKPKEIATGINNAPLGWLEANVVKFVDKDHIWHTDLKEVFHLFLRAHTGGVNYAHLFKIEIQDDQSMIPSLEHTPSGQKISYIPFPGGHLKFFIIYDELTRFYWLVSNQATDSMRRVSSLSNIKRYGLPNNERHRLQLHFSRNCVDWCFAGMVACSTNELYSRNYPSAVIKGDDLHIVCRSADEHALNPQYNNMITHHIVSNFRQLIY	not soluble
MGSDKIHHHHHHMKSIKELYRIGTGPSSSHTMGPRKAAEMFLTRHPEAASFKVTLYGSLAATGKGHMTDVAIIDTLKPTAPVDIIWQPKIFLPFHPNGMNFVALDAGGNELENWTVYSVGGGALAEDNKQPSIESPEVYSMNSMTEILDWCEHTGKSYWEYVKECEDPDIWDYLKEVWDTMKESVQRGLEQEGVLPGPLNLRRKASTYYIRATGYKASLQSRGLVFAYALAVSEENASGGKIVTAPTCGSCGVMPAVLYHLAKSREFSEMRILRALATAGLIGNIVKQNASISGAEVGCQGEVGVACAMASAAANQLFGGSPAQIEYAAEMGLEHHLGMTCDPVCGLVQIPCIERNAYAAARALDANLYSSFTDGMHRVSFDKVIQVMKQTGHDLPSLYKETSEGGLAKDYKPM	not soluble
MGSDKIHHHHHHMKSRLKKSHRLIRLISNIKSEPYLTVEQLVKIHRISRAQFYKDKAALAELGFEFSWDRRRRRFVISRVAYCPVENLTLSERWALLMAARQLSASGDYSLSFEVLNAARKLAAGLSDPIRETAVSLFNDLVLREGYGCRKEVMNKISMAIFEKRRIILTYKKPLDSQPEREELDPYHLFFQDRSLYVEGYACLRRDVRMFRLNRIRDIAFTPIRFSIPDDYDFGKRYRNAFSVFGGTTTQRVVVRFTAHIRPYIEETLWHHSQVVTIENGGFIRFEVQVAEPREVLWWAFRWGAGAEILEPAWLREKAKCEVEKMAGMYGRGSGSG	not soluble
